In publication PMC9675739, “Structural and functional asymmetry of RING trimerization controls priming and extension events in TRIM5α autoubiquitylation” (Nature Communications, 2022) one finds Kd data, which are given here for 1 protein.

The data set deals with the molecule itself. The data set can be described thus: AUC; sedimentation equilibrium at different protein concentrations and rotor speeds, 20 °C, global fit to a monomer-dimer self-association model; dimer to monomers.

B1: R1-WT, isolated RING domain of rhesus TRIM5α (domain or fragment, rhesus monkey, UniProt Q0PF16 2-90, looked up)
chain: ASGILLNVKEEVTCPICLELLTEPLSLHCGHSFCQACITANHKKSMLYKEGERSCPVCRISYQPENIQPNRHVANIVEKLREVKLSPEE
notes: TRIM5α RING domain, rhesus monkey, residues 2-90 (methods); the results give residues 2-89; Tags removed by TEV protease; 15N-labelled for NMR; also called RING monomer; isolated RING monomer; source: bacteria, purified (Ni-NTA, Superdex 75); not shown: His6, N-terminal, cleaved; GB1, N-terminal, cleaved
B1 showed a Kd of 63 ± 28 µM.
